According to PMC3988887:

Molecular target: MBP-Cnn fusion containing the WT PReM domain (MBP-Cnn-WT) (Drosophila melanogaster)
Assay: SEC-MALS; purified MBP-Cnn fusions; equal volume of protein at 15, 75 or 300 uM loaded onto the column; expected monomer mass 67.4 kDa (by MS)

Substance: MBP-Cnn fusion containing the WT PReM domain (MBP-Cnn-WT) (domain or fragment)
- stoichiometry N: 2
